# From the supplement of paper PMC10598134
# ± gives the standard deviation.
# Test: collision cross section of modified peptide (TIMS, N2, iRT-aligned); higher = larger / more extended gas-phase ion
# Outline: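 Synthetic peptide pools (~100 fmol/µL in 2% acetonitrile/0.1% formic acid, iRT standard spiked 1:40) were separated on a 120-min nanoflow C18 gradient at 60 °C. They were analysed on a timsTOF Pro/HT (dda-PASEF, nitrogen, ~2.4 mbar) and identified with MaxQuant. 1/K0 was calibrated with three reference ions and aligned run-wise to the median iRT peptide deviation. Collision cross section came from the Mason-Schamp equation, averaging 1–3 technical replicates of the most abundant feature per charge state.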
# [1] = charge state: 3, modification: Citrullination (R)
# [2] = charge state: 2, modification: Butyryl
# [3] = charge state: 3, modification: Butyryl
# [4] = charge state: 2, modification: Acetyl (K)
# [5] = charge state: 2, modification: Nitro (Y)
# [6] = charge state: 2, modification: Formyl
# [7] = charge state: 2, modification: Trimethyl (K)
# [8] = charge state: 3, modification: Trimethyl (K)
# [9] = charge state: 2, modification: Propionyl
# [10] = charge state: 2, modification: hydroxyisobutyryl
sequence,measurement,setting,value
RGATPPAPPRR [_R(Citrullination (R))GATPPAPPRR_],collision cross section,[1],462.57 ± 1.3 Å²
ITESVAETAQTIKK [_ITESVAETAQTIK(Butyryl)K_],collision cross section,[2],425.5 ± 0.24 Å²
same,collision cross section,[3],518.39 ± 2.7 Å²
GGGGGGGGGAPRGR [_GGGGGGGGGAPR(Citrullination (R))GR_],collision cross section,"charge state: 2, modification: Citrullination (R)",333.41 ± 0.64 Å²
same,collision cross section,[1],420.82 ± 2.9 Å²
GEVQVSDKER [_GEVQVSDK(Acetyl (K))ER_],collision cross section,[4],356.44 ± 0.96 Å²
TYVQDILR [_TY(Nitro (Y))VQDILR_],collision cross section,[5],350.96 ± 0.47 Å²
GDPGLIGPK [_GDP(Hydroxyproline)GLIGPK_],collision cross section,"charge state: 2, modification: Hydroxyproline",312.86 ± 1.3 Å²
TQAYQDQKPGTSGLR [_TQAYQDQK(Formyl)PGTSGLR_],collision cross section,[6],427.08 ± 0.79 Å²
TQAYQDQKPGTSGLR [_TQAYQDQK(Butyryl)PGTSGLR_],collision cross section,[2],427.73 ± 0.77 Å²
same,collision cross section,[3],479.17 ± 3.5 Å²
VGTASVLQPVKK [_VGTASVLQPVK(Trimethyl (K))K_],collision cross section,[7],394.06 ± 0.62 Å²
same,collision cross section,[8],455.76 ± 1.5 Å²
IGNSYFKEEK [_IGNSYFK(Propionyl)EEK_],collision cross section,[9],375.51 ± 0.65 Å²
DYSAPVNFISAGLKK [_DYSAPVNFISAGLK(hydroxyisobutyryl)K_],collision cross section,[10],443.11 ± 0.56 Å²
same,collision cross section,"charge state: 3, modification: hydroxyisobutyryl",536.52 ± 2.1 Å²
GETASKLQSEISR [_GETASK(Dimethyl (K))LQSEISR_],collision cross section,"charge state: 2, modification: Dimethyl (K)",398.3 ± 1.1 Å²
same,collision cross section,"charge state: 3, modification: Dimethyl (K)",460.41 ± 2.6 Å²
ATVASSTQKFQDLGVK [_ATVASSTQK(GlyGly (K))FQDLGVK_],collision cross section,"charge state: 2, modification: GlyGly (K)",480.31 ± 1.5 Å²
same,collision cross section,"charge state: 3, modification: GlyGly (K)",500.25 ± 0.34 Å²
ALASIDSKLNQAK [_ALASIDSK(hydroxyisobutyryl)LNQAK_],collision cross section,[10],410.87 ± 9.2 Å²
YEQEHAAIQDKLFQVAK [_YEQEHAAIQDK(Formyl)LFQVAK_],collision cross section,"charge state: 3, modification: Formyl",510.23 ± 1.3 Å²
TLDEILQEKK [_TLDEILQEK(Trimethyl (K))K_],collision cross section,[7],388.3 ± 0.013 Å²
same,collision cross section,[8],439.75 ± 2.4 Å²
VFSIISSEKELK [_VFSIISSEK(Formyl)ELK_],collision cross section,[6],402.55 ± 0.42 Å²
ITESVAETAQTIKK [_ITESVAETAQTIK(Propionyl)K_],collision cross section,[9],421.06 ± 1.1 Å²
same,collision cross section,"charge state: 3, modification: Propionyl",515.07 Å²
VDVEVPDVSLEGPEGKLK [_VDVEVPDVSLEGPEGK(Trimethyl (K))LK_],collision cross section,[7],461.69 ± 0.55 Å²
same,collision cross section,[8],507.27 ± 0.86 Å²
LSITGTYDLK [_LSITGTY(Nitro (Y))DLK_],collision cross section,[5],368.48 ± 0.22 Å²
FSAYIKNSNPALNDNLEK [_FSAYIK(Gluratylation)NSNPALNDNLEK_],collision cross section,"charge state: 2, modification: Glutarylation",487.96 ± 2 Å²
same,collision cross section,"charge state: 3, modification: Glutarylation",547.09 ± 1.3 Å²
TTEETSKPK [_TTEETSK(Formyl)PK_],collision cross section,[6],332.42 ± 4.9 Å²
ALASIDSKLNQAK [_ALASIDSK(Butyryl)LNQAK_],collision cross section,[2],403.96 ± 0.85 Å²
AAQASDLEKIHLDEK [_AAQASDLEK(Methyl (K))IHLDEK_],collision cross section,"charge state: 2, modification: Methyl (K)",449.24 Å²
same,collision cross section,"charge state: 3, modification: Methyl (K)",507.05 ± 2 Å²
VEPIHAVVLPRGK [_VEPIHAVVLPR(Methyl (R))GK_],collision cross section,"charge state: 2, modification: Methyl (R)",424.97 ± 1 Å²
same,collision cross section,"charge state: 3, modification: Methyl (R)",489.93 ± 2.2 Å²
DFDTALKHYDK [_DFDTALK(Malonyl)HYDK_],collision cross section,"charge state: 2, modification: Malonyl",405.79 ± 0.59 Å²
VDIDVPDVNIEGPDAKLK [_VDIDVPDVNIEGPDAK(Butyryl)LK_],collision cross section,[2],488.42 ± 0.47 Å²
SPDEAYAIAKK [_SPDEAYAIAK(Succinyl)K_],collision cross section,"charge state: 2, modification: Succinyl",374.28 ± 0.24 Å²
same,collision cross section,"charge state: 3, modification: Succinyl",452.6 ± 2.6 Å²
DAEAAEATAEGALKAEK [_DAEAAEATAEGALK(Acetyl (K))AEK_],collision cross section,[4],451.64 ± 19 Å²
same,collision cross section,"charge state: 3, modification: Acetyl (K)",539.19 ± 1.8 Å²
DHLSDKESK [_DHLSDK(Trimethyl (K))ESK_],collision cross section,[7],350.64 ± 1.1 Å²
same,collision cross section,[8],401.61 ± 0.025 Å²
LSESHPDATEDLQR [_LS(HexNAc (ST))ESHPDATEDLQR_],collision cross section,"charge state: 3, modification: HexNAc (ST)",486.6 ± 0.17 Å²
GSELQNYFTK [_GSELQNY(Phospho (Y))FTK_],collision cross section,"charge state: 2, modification: Phospho (Y)",373.39 ± 0.68 Å²
ITLSKHQNVQLPR [_ITLSK(Crotonyl)HQNVQLPR_],collision cross section,"charge state: 2, modification: Crotonyl",443.04 ± 1.2 Å²
same,collision cross section,"charge state: 3, modification: Crotonyl",519.02 ± 26 Å²
